From patent US20260183437A1, “VHH ANTIBODY CONJUGATES WITH HETEROARYL CHELATORS” (ABDERA THERAPEUTICS INC., priority 2022, published 2026) come the findings set out here.

The target in one data set is T1, hFcRn (Homo sapiens, UniProt P55899).
T1 construct: purchased Sino Biological CT071-H27H-B
Put plainly: FcRn affinity by biolayer interferometry (Octet RED96e), pH 6.0. The settings on record: pH 6.0, 2:1 binding model. On the procedure:
FcRn affinity of VHH-Fc can generally be used to predict the half-life of antibody serum clearance. (See, e.g., Datta-Mannan A et al. “FcRn affinity-pharmacokinetic relationship of five human IgG4 antibodies engineered for improved in vitro FcRn binding properties in cynomolgus monkeys.” Drug Metab Dispos. 2012 August; 40(8):1545-55). Briefly, 10 nM of biotinylated hFcRn (Sino Biological, Cat #: CT071-H27H-B) was captured with the SA biosensor using Octet RED96e (Fortebio). The hFcRN coated biosensor was dipped into the sample solutions in sodium phosphate buffer (100 mM Na2HPO4, 150 mM NaCl w/ 0.05% Tween-20, pH 6.0) with serial concentrations of tested antibodies and the association measured. The dissociation was measured by dipping the biosensors into sodium phosphate buffer without antibody. The KD values were determined using Octet Data Analysis HT 11.0 software. 2:1 (Heterogeneous Ligand) binding model was used in analysis. […] Changes in FcRn affinity were consistent across targets. Constructs with Fc Effector mutation only have no impact on FcRn affinity.
Background: BLI is a label-free optical method that tracks binding on a fibre tip over time.

A further data set concerns the target T2, human insulin (Homo sapiens, UniProt P01308).
T2 construct: 5 μg/mL of human insulin (SigmaAlrich, Cat #: I9278); purchased SigmaAlrich I9278
Put plainly: Polyreactivity ELISA. The settings on record: 10 μg/mL VHH-Fc; signal normalized to non-coated well. It counts as binding. The procedure:
Polyreactivity of VHH-Fcs against negatively charged biomolecules was determined by ELISA (As in Avery et al., “Establishing in vitro in vivo correlations to screen monoclonal antibodies for physicochemical properties related to favorable human pharmacokinetics.” MAbs. 2018 February/March; 10(2):244-255). Briefly, ELISA plate was coated with 5 μg/mL of human insulin (SigmaAlrich, Cat #: I9278) and 10 μg/mL of double stranded DNA (SigmaAlrich, Cat #: D1626-250MG) overnight. The plate was blocked with ELISA buffer (PBS, 1 mM EDTA, 0.05% Tween-20, pH 7.4). 10 μg/mL of test VHH-Fcs was loaded onto the plates in quadruplicates and incubated for 2 hours. Goat anti-human Fc(0.01 ug/ml) conjugated with HRP was then added and the plate incubated for 1 hour. The signal was developed with TMB and A450 absorbance was measured with Synergy Neo2 plate reader. The signal was normalized with the signal of non-coated well for each antibody tested.
(In an ELISA, binding on a coated surface is turned into a signal by an enzyme label.)

Data set [1] in a line: Pharmacokinetics of VHH-Fc variants in Tg32 (humanized FcRn) mice. Format: in vivo. The settings on record: IV 3 mg/kg, HER2 VHH-Fc study (Table 6). The procedure:
Twenty eight (28) 8 week old male B6. Cg-Fcgrt^tm1Der Tg(FCGRT)32Dcr/DcrJ (Tg32 hom, JAX stock #014565) mice were distributed into 7 groups with 4 mice per group as outlined in the table. […] (See, e.g., Avery L B et al. “Utility of a human FcRn transgenic mouse model in drug discovery for early assessment and prediction of human pharmacokinetics of monoclonal antibodies.” MAbs. 2016 August-September; 8(6):1064-78). On Day 0, body weights were measured and test articles were IV administered to all mice at 3 mg/kg and 5 mL/kg. 25 μL blood samples were collected from each mouse at time intervals. The blood samples were collected into 1 μL K3EDTA, processed to plasma, diluted 1/10 in 50% glycerol in PBS, transferred into specialized 96 well storage plates, and stored at −20° C. All plasma samples were assessed via a hIgG ELISA chosen for its high sensitivity for all seven test articles.

For another data set, the system named is BT-474 tumor. Put plainly: Biodistribution of ^111In radiolabeled VHH-Fcs, SPECT/CT imaging. Format: in vivo, mice. The settings on record: labeled with ^111In, compared with H101. On the procedure:
The objective of this study was to observe the biodistribution of ^111In radiolabeled SPECT/CT imaging across select test articles in BT-474 tumor (breast cancer cells) bearing nude mice. The following articles were tested at a CAR of about 4: ^111In-H101-4-1, ^111In-H1014-2, ^111In-H105-4-2, ^111In-H107-4-2, and ^111In-H108-4-2. FIGS. 9A, 9B, and 9C show tissue accumulation over time for ^111In-H101-SL, ^111In-H101-4-2, and ^111In-H108-4-2. […] FIGS. 10A, 10B, and 10C show tumor:tissue ratios. In each case, the tumor:tissue ratios were greater than 5, indicating increased tumor accumulation and better profiles used for determining safety (e.g., as compared lower tumor:tissue ratios). […] In each case, the VHH-Fc variants show advantageous targeting of tumor tissue.

A further data set concerns the target T3, FcγRI (Homo sapiens, UniProt P12314).
T3 construct: purchased Acro Biosystems
Put plainly: FcγR affinity by biolayer interferometry (Octet Red96e). It counts as binding. On the procedure: (§1) VHH-Fcs were also tested for affinity to FcγRs by biolayer interferometry using the Octet Red96e platform. Each cycle is performed with orbital shake speed of 1,000 rpm. Streptavidin (SA) biosensors (Sartorius 18-5019) were rehydrated for 10 mins using kinetics buffer (PBS+0.1% BSA+0.02% Tween-20). Biotinylated-FcγRs (Acro Biosystems) were then loaded for 40-100 s onto SA biosensors at concentrations ranging between 1-5 μg/mL diluted in PBS. VHH-Fcs were serially diluted 1:2 in sample buffer (PBS+0.02% Tween-20) with starting concentrations ranging between 5000 nM to 37.5 nM. Loaded biosensors were then associated with VHH-Fcs for 60-120 s. VHH-Fc dissociation was measured for 30-900 s in sample buffer. Bound VHH-Fcs were then removed using 3 cycles of 5 s regeneration buffer (150 mM NaCl, 300 mM Sodium Citrate) and 5 s sample buffer. The data was analyzed either using a globally-fitted 1:1 Langmuir binding model (FcγRI) or steady state analysis (Octet software version HT v11.1).

A further data set concerns the target T4, FcγRIIa (R167) (Homo sapiens, UniProt P12318, H167R).
T4 construct: purchased Acro Biosystems
T4 sequence (P12318 36-218 H167R limits assumed): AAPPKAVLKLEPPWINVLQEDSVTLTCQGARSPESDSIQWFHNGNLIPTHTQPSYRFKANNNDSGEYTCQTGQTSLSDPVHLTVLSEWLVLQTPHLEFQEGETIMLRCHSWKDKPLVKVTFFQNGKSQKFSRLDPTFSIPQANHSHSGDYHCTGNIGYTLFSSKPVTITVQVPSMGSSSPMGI
The data set is described as above. Format: binding. On the procedure: as §1

A further data set concerns the target T5, FcγRIIb/c (Homo sapiens, UniProt P31994).
T5 construct: purchased Acro Biosystems
T5 sequence (P31994 43-310): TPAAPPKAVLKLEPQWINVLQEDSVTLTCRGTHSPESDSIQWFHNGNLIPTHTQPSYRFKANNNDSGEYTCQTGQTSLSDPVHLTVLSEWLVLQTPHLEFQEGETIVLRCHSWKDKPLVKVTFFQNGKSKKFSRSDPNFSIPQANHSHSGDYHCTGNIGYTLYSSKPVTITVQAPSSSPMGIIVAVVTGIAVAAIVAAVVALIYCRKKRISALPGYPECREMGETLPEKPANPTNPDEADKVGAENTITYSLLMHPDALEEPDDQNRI
Described as above. Format: binding. The procedure:
as §1

T1 sequence (P55899 24-297 limits assumed): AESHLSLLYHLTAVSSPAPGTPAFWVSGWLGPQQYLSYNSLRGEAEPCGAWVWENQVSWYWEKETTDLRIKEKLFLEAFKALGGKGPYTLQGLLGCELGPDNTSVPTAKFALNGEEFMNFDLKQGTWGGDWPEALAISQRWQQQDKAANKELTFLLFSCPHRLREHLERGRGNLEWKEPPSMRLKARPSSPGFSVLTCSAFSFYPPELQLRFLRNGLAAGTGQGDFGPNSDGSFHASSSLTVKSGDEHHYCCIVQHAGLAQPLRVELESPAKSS
T1 sequence (P61769 21-119 partner): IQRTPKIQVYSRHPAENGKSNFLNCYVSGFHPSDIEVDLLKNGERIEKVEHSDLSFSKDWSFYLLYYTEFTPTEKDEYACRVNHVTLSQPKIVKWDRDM
T2 sequence (P01308 25-54 limits assumed): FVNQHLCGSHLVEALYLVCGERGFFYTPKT
T2 sequence (P01308 90-110 limits assumed): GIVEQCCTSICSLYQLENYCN
T3 sequence (P12314 16-374): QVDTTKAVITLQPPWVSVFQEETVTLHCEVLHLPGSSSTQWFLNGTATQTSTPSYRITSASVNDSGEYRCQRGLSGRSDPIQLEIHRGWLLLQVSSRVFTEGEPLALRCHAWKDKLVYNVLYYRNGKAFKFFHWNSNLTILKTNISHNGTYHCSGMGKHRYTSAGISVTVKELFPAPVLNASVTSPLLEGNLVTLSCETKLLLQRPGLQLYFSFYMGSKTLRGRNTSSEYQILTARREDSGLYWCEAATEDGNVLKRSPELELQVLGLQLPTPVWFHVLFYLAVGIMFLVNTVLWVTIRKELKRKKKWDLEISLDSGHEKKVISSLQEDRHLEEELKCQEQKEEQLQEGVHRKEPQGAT

With “H105: anti-HER2 VHH-Fc, FcRn mutant I253A [Compound H105]”, in the data set with hFcRn, the “KD (nM) to FcRn” value is listed as “Weak”. Besides, in the data set with human insulin, the “Polyreactivity Assay Score, Insulin” value came out at 1.207. Further, in data set [1], the Clearance amounted to 152.1 mL/day, the Cmax amounted to 63.9 µg/mL and the “Terminal Half-Life” value was determined as 26.9 h. Besides, the Whole body clearance entry with BT-474 tumor is recorded as “increased clearance”.

With “H106: anti-HER2 VHH-Fc, FcRn mutant S254A [Compound H106]”, the affinity with hFcRn, expressed as Kd, was 13 nM. In addition, the “Polyreactivity Assay Score, Insulin” value with human insulin came out at 1.321. Moreover, in data set [1], the Clearance was 19.8 mL/day, the Cmax was found to be 53.5 µg/mL and the “Terminal Half-Life” value worked out at 170 h.

Consider “H107: anti-HER2 VHH-Fc, FcRn mutant H310A [Compound H107]”, for which the “KD (nM) to FcRn” value with hFcRn is listed as “No binding”. Also, the “Polyreactivity Assay Score, Insulin” value with human insulin stood at 1.306. For the same substance, in data set [1], the Clearance came out at 304.4 mL/day, the Cmax came out at 62.4 µg/mL and the “Terminal Half-Life” value was found to be 9.84 h. In addition, in the data set on BT-474 tumor, the Whole body clearance result is on record as “increased clearance”.

“H108: anti-HER2 VHH-Fc, FcRn mutant H435Q [Compound H108]”: the “KD (nM) to FcRn” value in the data set with hFcRn is recorded as “Weak”. The “Polyreactivity Assay Score, Insulin” value with human insulin is reported as 1.420. In data set [1], the Clearance was 117.5 mL/day, the Cmax amounted to 46.6 µg/mL and the “Terminal Half-Life” value is 37.7 h. Further, the Whole body clearance result with BT-474 tumor is “increased clearance”.

Turning to “H109: anti-HER2 VHH-Fc, FcRn mutant Y463A (as printed) [Compound H109]”, the equilibrium dissociation constant (Kd) in the data set with hFcRn stood at 13 nM. In addition, the “Polyreactivity Assay Score, Insulin” value in the data set with human insulin was 1.244. For the same substance, in data set [1], the Clearance amounted to 18.2 mL/day, the peak concentration (Cmax) was determined as 52.2 µg/mL and the “Terminal Half-Life” value worked out at 166 h.

With “H133: anti-HER2 VHH-Fc, FcRn wt, Fc effector mutant AEASS [Compound H133]”, the Kd with hFcRn worked out at 2.1 nM; with FcγRI, 1 nM; with FcγRIIa (R167) it was 2300 nM. Also, the “FcγRIIb/c nM KD” value in the data set with FcγRIIb/c was “weak”.

On to “H135: anti-HER2 VHH-Fc, H310A, Fc effector mutant AEASS [Compound H135]”, for which the “KD (nM) to FcRn” value in the data set with hFcRn is listed as “No binding”. The substance further had a Kd with FcγRIIa (R167) of 1200 nM. Moreover, the “FcγRIIb/c nM KD” value with FcγRIIb/c is on record as “weak”.

For “H137: anti-HER2 VHH-Fc, H435Q, Fc effector mutant AEASS [Compound H137]”, the “KD (nM) to FcRn” value with hFcRn is listed as “Weak”. Also, the equilibrium dissociation constant (Kd) with FcγRIIa (R167) is 1200 nM. The “FcγRIIb/c nM KD” value in the data set with FcγRIIb/c is recorded as “weak”.

As usually defined, the Cmax is the peak of the concentration-time curve. By Kd is commonly meant the constant that tells how readily two partners part at equilibrium.
